The results in this text go back to patent US20170226172A1.

For the test, the target named is FGFR1c/alpha-klotho receptor complex, human, pre-formed (SPR analyte) (human) (UniProt P11362). Description: SPR competition: FGF23 on the chip surface, FGFR1c-alphaKlotho complex in solution mixed with the competitor; Ki listed at the upper right of the sheet.

B1: Wild Type Human FGF23 c-tail 180-251 (72 amino acid peptide) (peptide)
peptide: SAEDDSERDPLNVLKPRARMTPAPASCSQELPSAEDNSPMASDPLGVVRGGRVNTHAGGTGPEGCRPFAKFI
For B1, the Ki (in general, the equilibrium dissociation constant of an inhibitor or competing ligand from its target) came out at 31 nM. This counts as double-digit nanomolar.

B2: N-terminal FGF23 c-tail Fc fusion (Fc fusion, not shown: a dimerising Fc or GST; small tags and cut ends)
chain: B1 peptide
Molecule B2 returned a Ki of 46 nM.
